According to patent US20100075326A1:
pKd: −log10 of the molar value. Where two headings read alike, the source gives them in different places.

Columns and labels:
[1] = target: LFA-1 I domain F265S, YS2H bait fused to Aga2 with C-terminal FLAG tag (yeast) (UniProt P20701); assay: predicted from YS2H (flow cytometry of Myc and FLAG tags, Langmuir equation)
[2] = target: LFA-1 I domain L295P, YS2H bait fused to Aga2 with C-terminal FLAG tag (yeast) (UniProt P20701); assay: as above
[3] = target: high affinity (HA) LFA-1 I domain K287C/K294C, YS2H bait fused to Aga2 with C-terminal FLAG tag (yeast) (UniProt P20701); assay: as above
[4] = target: LFA-1 I domain F265S, YS2H bait fused to Aga2 with C-terminal FLAG tag (yeast) (UniProt P20701); assay: as above; remark: listed apart in the source
[5] = target: LFA-1 I domain L295P, YS2H bait fused to Aga2 with C-terminal FLAG tag (yeast) (UniProt P20701); assay: YS2H as in the row 'Myc', but labelled without metal ions with 10 mM EDTA (row 'Myc+ EDTA'); Flag (bait) MFI 40±2
[6] = target: LFA-1 I domain F265S, YS2H bait fused to Aga2 with C-terminal FLAG tag (yeast) (UniProt P20701); assay: YS2H as in the row 'Myc', but labelled without metal ions with 10 mM EDTA (row 'Myc+ EDTA'); Flag (bait) MFI 52±8
[7] = target: wild-type LFA-1 I domain, YS2H bait fused to Aga2 with C-terminal FLAG tag (yeast) (UniProt P20701); assay: YS2H: I domain bait on the yeast surface (Aga2 fusion, Flag tag), secreted scFv prey with Myc tag; flow cytometry with anti-Myc antibody, mean ± standard error of three measurements; Flag (bait) MFI 79±1
[8] = target: high affinity (HA) LFA-1 I domain K287C/K294C, YS2H bait fused to Aga2 with C-terminal FLAG tag (yeast) (UniProt P20701); assay: YS2H: I domain bait on the yeast surface (Aga2 fusion, Flag tag), secreted scFv prey with Myc tag; flow cytometry with anti-Myc antibody, mean ± standard error of three measurements; Flag (bait) MFI 85±7
[9] = target: LFA-1 I domain L295P, YS2H bait fused to Aga2 with C-terminal FLAG tag (yeast) (UniProt P20701); assay: YS2H: I domain mutant bait on the yeast surface, secreted scFv AL-57 prey with Myc tag; flow cytometry with anti-Myc antibody, 10 mM MgCl2, mean ± standard error of three measurements; Flag (bait) MFI 40±2
[10] = target: LFA-1 I domain F265S, YS2H bait fused to Aga2 with C-terminal FLAG tag (yeast) (UniProt P20701); assay: YS2H: I domain mutant bait on the yeast surface, secreted scFv AL-57 prey with Myc tag; flow cytometry with anti-Myc antibody, 10 mM MgCl2, mean ± standard error of three measurements; Flag (bait) MFI 52±8
[11] = target: LFA-1 I domain F265S, soluble, refolded from E. coli (UniProt P20701); assay: SPR (Biacore), I domain injected over scFv AL-57 chip, 10 mM MgCl2
[12] = target: LFA-1 I domain L295P, soluble, refolded from E. coli (UniProt P20701); assay: as above
[13] = target: high affinity (HA) LFA-1 I domain K287C/K294C, soluble, refolded from E. coli (UniProt P20701); assay: as above
[14] = target: the wild-type and HA I domain; assay: predicted from YS2H (flow cytometry of Myc and FLAG tags, Langmuir equation)
[15] = target: high affinity (HA) LFA-1 I domain K287C/K294C, YS2H bait fused to Aga2 with C-terminal FLAG tag (yeast) (UniProt P20701); assay: YS2H: I domain bait on the yeast surface (Aga2 fusion, Flag tag), secreted scFv prey with Myc tag; flow cytometry, mean ± standard error of three measurements; paragraph 71 says goat polyclonal anti-murine antibody was the primary antibody for detecting TS1/22; Flag (bait) MFI 44±2
[16] = target: wild-type LFA-1 I domain, YS2H bait fused to Aga2 with C-terminal FLAG tag (yeast) (UniProt P20701); assay: YS2H: I domain bait on the yeast surface (Aga2 fusion, Flag tag), secreted scFv prey with Myc tag; flow cytometry, mean ± standard error of three measurements; paragraph 71 says goat polyclonal anti-murine antibody was the primary antibody for detecting TS1/22; Flag (bait) MFI 40±0.3

scFv AL-57, secreted YS2H prey with C-terminal Myc tag
pKd [1]: 6.62
pKd [2]: 6.36
pKd [3]: 6.82
pKd [4]: 6.63 to 6.83
MFI (anti-Myc, with EDTA) [5]: 10
MFI (anti-Myc, with EDTA) [6]: 15
MFI (anti-Myc) [7]: 12
MFI (anti-Myc) [8]: 80
MFI (anti-Myc) [9]: 13
MFI (anti-Myc) [10]: 32

scFv AL-57, soluble, refolded from E. coli
pKd [11]: 7.80
pKd [12]: 6.61
pKd [13]: 7.49

scFv TS1/22, secreted YS2H prey with C-terminal Myc tag
pKd [14]: 6.63 to 6.83
MFI (row 'Myc') [15]: 40
MFI (row 'Myc') [16]: 38
